Assay [1] has as its target T1, GST-PDZI′ recombinant Grasp55 protein (murine).
T1 construct: also called Grasp-GST-PDZI′; PDZI′-GST-construct
Description: HTRF competition against biotinylated JAM-C peptide. As to the method: (§1) In some experiments, competing peptide or chemicals were added to the incubation mix at the indicated concentration. After incubation, microtiter plates (Costar #3693) were red using PolarScan Omega (BMG Labtech) equipped for HTRF measurements. Upon excitation at 320 nm, a 620 nm fluorescence emission is produced by the donor terbium that in turn excites a 665 nm light emission by a Streptavidin-d2 (acceptor) bound to the Biotinylated interacting Peptide if the latter is interacting with the donor. The […] R ratio is obtained and a Delta F is computed as: [(Rₛₐₘₚₗₑ−RNSB)/RNSB]*100 where RNSB is the Non Specific Background signal determined in incubates where the GST-fusion protein was omitted.

For assay [2], the target named is T2, Grasp55 (Golgi reassembly-stacking protein of 55 kDa), endogenous mouse protein in cell lysates (murine, UniProt Q99JX3 2-451, limits assumed).
T2 construct: Endogenous protein detected by mass spectrometry or anti-GRASP55 blot
Description: peptide pull-down of KLN205 lysates, mass spectrometry. An excerpt: As control, the same peptides, but deleted of the last three amino-acids known as the functional PDZ binding motif of JAM family members, were used.

The target in assay [3] is T3, Grasp55 FL, yeast two-hybrid construct (murine, UniProt Q99JX3 1-451).
T3 construct: Gal4 fusion expressed in yeast AH109; also called wt Grasp55
Description: yeast two-hybrid, growth on selective medium. The text has this: (§2) The different GRASP55 constructs were cloned into pGBT9 GW vector (Ga14 DNA-binding domain fusion vector, Trp) as well in the pACT2 GW vector (Gal4 DNA-activation domain fusion vector, Leu) using the Gateway technology (Invitrogen). Plasmids were then co-transformed in AH109 yeast strain (/MATa, trp1-901, leu2-3, 112, ura3-52, his3-200, gal4/A, /gal80/A, /LYS2::GAL1//UAS//-GAL1//TATA//-HIS3, GAL2//UAS//-GAL2//TATA//-ADE2, URA3::MEL1//UAS//-MEL1//TATA//-lacZ, MEL1/) in accordance with the previously described transformation protocol (Chien et al. 1991. Proc Natl Acad Sci USA. 88:9578-82). Following co-transformation with the two vectors containing the different constructs (as well as the empty vector to test self activation), yeasts were plated onto Synthetic Complete (SC) medium minus Leucine (−L), minus Tryptophan (−W), minus Histidine (−H) and incubated at 30° C. for 4 to 5 days. All yeast media were prepared as previously described.
(§3) GST fusion proteins were produced and yeast two-hybrid assay was performed as previously described in example 1.

The target in assay [4] is T4, Grasp55 PDZI (1-79), yeast two-hybrid construct (murine, UniProt Q99JX3 1-79).
T4 construct: also called isolated first PDZ domain
Description: yeast two-hybrid, growth on selective medium.
Excerpt: as §2, §3

Assay [5] addresses T5, Grasp55 PDZII (80-160), yeast two-hybrid construct (murine, UniProt Q99JX3 80-160).
T5 construct: also called isolated second PDZ domain
Description: yeast two-hybrid, growth on selective medium.
Excerpt: as §2, §3

Assay [6] has as its target Grasp55 PDZI + II (1-160), yeast two-hybrid construct (murine, UniProt Q99JX3 1-160). Description: yeast two-hybrid, growth on selective medium.
Excerpt: as §2, §3

Assay [7] addresses Grasp55 PDZI′ (1-107), yeast two-hybrid construct (murine, UniProt Q99JX3 1-107). Description: yeast two-hybrid, growth on selective medium.
Excerpt: as §2, §3

In assay [8] the target is Grasp55 PDZII′ (108-208), yeast two-hybrid construct (murine, UniProt Q99JX3 108-208). Description: yeast two-hybrid, growth on selective medium.
Excerpt: as §2, §3

The target in assay [9] is Grasp55 PDZI′ + II′ (1-208), yeast two-hybrid construct (murine, UniProt Q99JX3 1-208). Description: yeast two-hybrid, growth on selective medium.
Excerpt: as §2, §3

For assay [10], the target named is T2, Grasp55 (Golgi reassembly-stacking …). Description: co-immunoprecipitation, anti-GRASP55 blot. The procedure: (§4) Total cell lysates were used as controls. Proteins were then resolved on SDS-PAGE and blotted with anti-GRASP55 antibody. Arrows indicate the signal corresponding to Grasp55.
Protein concentration of the samples was determined according to the Bradford method.

In assay [11] the target is T1, GST-PDZI′ recombinant Grasp55 protein. Description: HTRF. As to the method:
as §1

Assay [12] has as its target T6, GST-PDZI′+II′ recombinant Grasp55 protein (murine).
T6 construct: also called Grasp-GST-PDZI′+II′
Description: HTRF. As to the method:
as §1

Assay [13] concerns the target T2, Grasp55 (Golgi reassembly-stacking …). Description: peptide pull-down of cell lysates, anti-GRASP55 blot.
Excerpt: as §4

The next assay concerns the target T7, GST-GRASP55 PDZ I+II (murine).
T7 construct: also called PDZ I+II of Grasp55; PDZI+II (1-160)
Description: ELISA, GST fusion on glutathione plate, biotinylated peptide. The procedure:
(§5) Ninety-six well plates coated with glutathione were incubated overnight with various GST fusion proteins. The plates were then washed, blocked and incubated with JAMs biotinylated peptides with or without PDZ binding motif. […] Results are expressed as Mean+/−SEM of Relative Unit of absorbance measured at 450 nm. […] One representative experiment is shown.
(§6) To set up ELISA test, various proteins of soluble GST-GRASP55 proteins were incubated on ninety-six-well plates (Nalge Nunc International) coated with glutathione. Plates were then washed and blocked with buffer containing PBS and 2% of bovine albumin for 2 hours. […] After three successive washes, streptavidin-HRP was added to reveal the various complexes, followed by a HRP substrate, tetramethylbenzidine (TMB). Absorbance (OD_{450 nm}) was determined on an ELISA POLARstar reader.

A further assay deals with T8, GST-GRASP55 PDZ I (murine).
T8 construct: also called PDZ I of Grasp55; PDZI (1-79)
T8 sequence (chain, as listed by the source): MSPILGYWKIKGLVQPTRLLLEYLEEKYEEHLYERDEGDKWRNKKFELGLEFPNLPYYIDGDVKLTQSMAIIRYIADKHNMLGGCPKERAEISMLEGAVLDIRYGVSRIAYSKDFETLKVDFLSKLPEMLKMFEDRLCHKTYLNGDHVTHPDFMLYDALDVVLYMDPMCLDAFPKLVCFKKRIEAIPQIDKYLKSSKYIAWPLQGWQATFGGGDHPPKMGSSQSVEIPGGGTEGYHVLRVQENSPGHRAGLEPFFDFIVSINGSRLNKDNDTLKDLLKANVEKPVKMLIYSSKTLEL
The description is as above. The procedure: as §5, §6

We go through 14 molecules from patent publication US20130309252A1 (UNIVERSITE DE LA MEDITERRANEE AIX MARSEILLE II, published 2013).

Where no end group is shown, it is not given here.

T1 sequence (chain, as listed by the source): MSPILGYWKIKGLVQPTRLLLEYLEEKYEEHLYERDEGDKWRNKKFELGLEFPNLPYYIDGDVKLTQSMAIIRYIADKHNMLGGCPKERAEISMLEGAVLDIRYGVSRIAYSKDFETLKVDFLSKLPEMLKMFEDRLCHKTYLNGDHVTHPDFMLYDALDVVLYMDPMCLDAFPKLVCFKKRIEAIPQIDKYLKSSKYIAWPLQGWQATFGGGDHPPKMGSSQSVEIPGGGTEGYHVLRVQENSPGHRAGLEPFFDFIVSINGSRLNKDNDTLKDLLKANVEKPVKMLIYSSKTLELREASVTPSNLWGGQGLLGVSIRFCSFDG
T7 sequence (chain, as listed by the source): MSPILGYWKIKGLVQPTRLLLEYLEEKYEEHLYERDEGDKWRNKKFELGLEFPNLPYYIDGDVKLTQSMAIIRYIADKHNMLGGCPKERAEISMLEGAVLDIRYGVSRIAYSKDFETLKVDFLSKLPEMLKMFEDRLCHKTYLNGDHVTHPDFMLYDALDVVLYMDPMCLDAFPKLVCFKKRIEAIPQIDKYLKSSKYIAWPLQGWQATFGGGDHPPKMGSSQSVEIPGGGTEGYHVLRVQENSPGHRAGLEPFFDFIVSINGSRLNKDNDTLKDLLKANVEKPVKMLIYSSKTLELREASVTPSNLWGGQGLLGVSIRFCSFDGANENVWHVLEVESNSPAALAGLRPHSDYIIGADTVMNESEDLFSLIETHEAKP

As to NYIRTSEEGDFRHKSSFVI (also called JAM-C unlabelled peptide) [non-biotinylated (unlabelled) JAM-C peptide], the “fold increase in EC50 against GST-PDZI′+II′ and GST-GraspFL” value in assay [1] was 20 fold.

Take SKVTTMSENDFKHTKS (also: biotinylated (position not given here), also called JAM-BΔ) [biotinylated JAM-B control peptide, last 19 amino-acids deleted of the last three amino-acids]: in assay [2], the binding result was “no binding”.

B1: JAM-B cytoplasmic C-terminal construct, yeast two-hybrid (other)
chain: TCYAQRKGYFSKETSFQKGSPASKVTTMSENDFKHTKSFII
notes: not shown: Gal4 domain of the two-hybrid vector
As for B1, the binding result in assay [3] is given as “binds”; in assay [4], “no binding”; in assay [5] it was “no binding”; in assay [6], “binds”.

B2: JAM-B ΔPDZbm, yeast two-hybrid construct lacking the last three amino-acids (other)
chain: TCYAQRKGYFSKETSFQKGSPASKVTTMSENDFKHTKS
notes: End at 295 worked out from 'deletion of the last three amino-acids' of 258-298; not shown: Gal4 domain of the two-hybrid vector
With B2, the binding result in [3], in [4], in [5] and in [6] was “no binding” in each case.

B3: ADAM10 C-terminal sequence, yeast two-hybrid construct (other)
chain: FIKICSVHTPSSNPKLPPPKPLPGTLKRRRPPQPIQQPPRQRPREYQMGHMRR
notes: as for B1
As for B3, the binding result in assay [4], in assay [7] and in assay [8] was “no binding” throughout.

B4: JAM-C cytoplasmic C-terminal construct, yeast two-hybrid (other)
chain: ICCAYRRGCFISSKQDGESYKSPGKHDGVNYIRTSEEGDFRHKSSFVI
notes: also called JAM-C C-terminal region; not shown: Gal4 domain of the two-hybrid vector
As for B4, the binding result in assay [3] is recorded as “binds”; in assay [4] it was “no binding”; in [7] it was “binds”; in assay [5], “no binding”; in assay [8], “no binding”; in [6] it was “binds”. For the same molecule, in [9], the binding result is given as “binds”.

B5: JAM-A ΔPDZbm, yeast two-hybrid construct lacking the last three amino-acids (other)
chain: AYSRGYFETTKKGTAPGKKVIYSQPSTRSEGEFKQTS
notes: End at 296 worked out from 'deletion of the last three amino-acids' of 260-299; not shown: Gal4 domain of the two-hybrid vector
With B5, the binding result in [3], in [4], in [5] and in [6] was “no binding” in each case.

B6: JAM-B, endogenous mouse protein immunoprecipitated with rat mAb JB4 (receptor)
chain: FSASKDHRQEVTVIEFQEAILACKTPKKTTSSRLEWKKVGQGVSLVYYQQALQGDFKDRAEMIDFNIRIKNVTRSDAGEYRCEVSAPTEQGQNLQEDKVMLEVLVAPAVPACEVPTSVMTGSVVELRCQDKEGNPAPEYIWFKDGTSLLGNPKGGTHNNSSYTMNTKSGILQFNMISKMDSGEYYCEARNSVGHRRCPGKRMQVDVLNISGIIATVVVVAFVISVCGLGTCYAQRKGYFSKETSFQKGSPASKVTTMSENDFKHTKSFII
notes: also called junctional adhesion molecule B
Regarding B6, in assay [10], the binding result was “binds”.

B7: ADAM17 C-terminal sequence, yeast two-hybrid construct (other)
chain: CVDKKLDKQYESLSLFHHSNIEMLSSMDSASVRIIKPFPAPQTPGRLQALQPAAMMPPVSAAPKLDHQRMDTIQEDPSTDSHVDDDGFEKDPFPNSSTAAKSFEDLTDHPVTRSEKAASFKLQRQSRVDSKETEC
notes: as for B1
Consider B7, for which the binding result in assay [4] was “no binding”; in [7], “no binding”; in assay [5] it was “binds”; in assay [8] it was “no binding”; in assay [6], “no binding”; in [9], “no binding”.

B8: JAM-A, endogenous mouse protein immunoprecipitated with rat mAb H202 (receptor)
chain: KGSVYTAQSDVQVPENESIKLTCTYSGFSSPRVEWKFVQGSTTALVCYNSQITAPYADRVTFSSSGITFSSVTRKDNGEYTCMVSEEGGQNYGEVSIHLTVLVPPSKPTISVPSSVTIGNRAVLTCSEHDGSPPSEYSWFKDGISMLTADAKKTRAFMNSSFTIDPKSGDLIFDPVTAFDSGEYYCQAQNGYGTAMRSEAAHMDAVELNVGGIVAAVLVTLILLGLLIFGVWFAYSRGYFETTKKGTAPGKKVIYSQPSTRSEGEFKQTSSFLV
notes: also called junctional adhesion molecule A
As to B8, the binding result in assay [10] is reported as “binds”.

B9: JAM-C, endogenous mouse protein immunoprecipitated with rat mAb 19H36 (receptor)
chain: EAVNLKSSNRNPVVHEFESVELSCIITDSQTSDPRIEWKKIQDGQTTYVYFDNKIQGDLAGRTDVFGKTSLRIWNVTRSDSAIYRCEVVALNDRKEVDEITIELIVQVKPVTPVCRIPAAVPVGKTATLQCQESEGYPRPHYSWYRNDVPLPTDSRANPRFQNSSFHVNSETGTLVFNAVHKDDSGQYYCIASNDAGAARCEGQDMEVYDLNIAGIIGGVLVVLIVLAVITMGICCAYRRGCFISSKQDGESYKSPGKHDGVNYIRTSEEGDFRHKSSFVI
notes: also called junctional adhesion molecule C
In the case of B9, the binding result in assay [10] was “binds”.

B10: JAM-C ΔPDZbm, yeast two-hybrid construct lacking the last three amino-acids (other)
chain: ICCAYRRGCFISSKQDGESYKSPGKHDGVNYIRTSEEGDFRHKSS
notes: End at 307 worked out from 'deletion of the last three amino-acids' of 263-310; not shown: Gal4 domain of the two-hybrid vector
For B10, the binding result in [3], in [4], in [7], in assay [5], in assay [8] and in assay [6] was “no binding” each time. Moreover, the binding result in [9] was “no binding”.

As for NYIRTSEEGDFRHKSS (also: biotinylated (position not given here), also called JAM-CΔ) [biotinylated JAM-C control peptide ΔPDZbm, lacking the last three amino-acids], the binding result in assay [11] is recorded as “no binding (tested: 1.9*10^-7M peptide)”; in [12], “no binding (tested: 1.9*10^-7M peptide)”; in assay [13], “no binding”; with GST-GRASP55 PDZ I+II it was “no binding”.

B11: biotinylated peptide corresponding to the last 19 amino-acids of JAM-C (peptide)
peptide: NYIRTSEEGDFRHKSSFVI
modifications: also: biotinylated (position not given here)
notes: also called JAM-C peptide; biotinylated JAM-C
For B11, the binding result with GST-GRASP55 PDZ I is on record as “no binding”.
